Reference: PMC3355120, “LGR6 Is a High Affinity Receptor of R-Spondins and Potentially Functions as a Tumor Suppressor” (PLoS ONE, 2012)
One block for each binder: values may come before it.

Tests used:
[1] = target: T1, human LGR6 (leucine-rich repeat containing, G protein-coupled receptor 6) with a Flag-tag at the N-terminus, … (human, UniProt Q9HBX8-3 25-967); assay: whole-cell-based competition binding assay; HEK293 cells stably expressing Flag-LGR6 incubated with mRSPO1-Fc plus serial dilutions of purified recombinant RSPO1–4; maximum specific binding is the difference with and without mRSPO1-Fc; conditions: one partner purified
T1 construct: human LGR6, predicted mature form AA25-967 of NP_001017403; The CD8 signal peptide replaces LGR6's own; also called Flag-LGR6; LGR6 WT; source: HEK293T cells, transiently transfected (reporter assays); not shown: Flag, N-terminal, kept
T1 sequence (looked up): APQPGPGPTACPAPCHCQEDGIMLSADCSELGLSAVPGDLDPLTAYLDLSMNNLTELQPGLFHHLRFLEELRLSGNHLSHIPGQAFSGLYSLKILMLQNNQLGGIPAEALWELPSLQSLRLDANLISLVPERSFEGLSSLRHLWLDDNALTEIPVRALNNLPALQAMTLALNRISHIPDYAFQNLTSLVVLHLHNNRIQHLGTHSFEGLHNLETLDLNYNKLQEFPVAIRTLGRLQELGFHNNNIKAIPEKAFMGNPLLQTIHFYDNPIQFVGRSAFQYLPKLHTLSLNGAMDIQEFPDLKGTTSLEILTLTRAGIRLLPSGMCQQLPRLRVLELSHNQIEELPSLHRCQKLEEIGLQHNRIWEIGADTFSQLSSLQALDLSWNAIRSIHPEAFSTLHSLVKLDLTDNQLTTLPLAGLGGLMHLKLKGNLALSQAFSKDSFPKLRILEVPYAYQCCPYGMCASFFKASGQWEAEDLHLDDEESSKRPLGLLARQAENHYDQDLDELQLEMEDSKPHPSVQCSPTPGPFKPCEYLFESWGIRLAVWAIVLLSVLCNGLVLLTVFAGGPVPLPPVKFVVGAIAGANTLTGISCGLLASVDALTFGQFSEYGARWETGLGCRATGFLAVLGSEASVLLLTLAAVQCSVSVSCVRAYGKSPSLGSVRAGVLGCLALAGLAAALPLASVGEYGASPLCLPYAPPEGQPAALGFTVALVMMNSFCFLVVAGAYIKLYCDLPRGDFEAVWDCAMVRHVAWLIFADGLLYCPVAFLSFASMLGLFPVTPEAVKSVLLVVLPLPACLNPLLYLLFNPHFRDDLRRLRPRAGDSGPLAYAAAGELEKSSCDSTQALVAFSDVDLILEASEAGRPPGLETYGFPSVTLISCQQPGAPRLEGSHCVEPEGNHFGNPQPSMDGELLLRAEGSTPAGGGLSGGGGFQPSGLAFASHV

[2] = target: T1, human LGR6 (leucine-rich repeat …); assay: cell-based or functional assay

B2: purified recombinant R-spondin 3 (ligand, UniProt Q9BXY4 22-272, looked up)
chain: QNASRGRRQRRMHPNVSQGCQGGCATCSDYNGCLSCKPRLFFALERIGMKQIGVCLSSCPSGYYGTRYPDINKCTKCKADCDTCFNKNFCTKCKSGFYLHLGKCLDNCPEGLEANNHTMECVSIVHCEVSEWNPWSPCTKKGKTCGFKRGTETRVREIIQHPSAKGNLCPPTNETRKCTVQRKKCQKGERGKKGRERKRKKPNKGESKEAIPDSKSLESSKEIPEQRENKQQQKKRKVQDKQKSVSVSTVH
notes: R-spondin 3 (RSPO3); also called RSPO3; source: purified recombinant
IC50 [1]: 1.7 nM

B3: purified recombinant R-spondin 2 (ligand, UniProt Q6UXX9 22-243, looked up)
chain: QGNRWRRSKRASYVSNPICKGCLSCSKDNGCSRCQQKLFFFLRREGMRQYGECLHSCPSGYYGHRAPDMNRCARCRIENCDSCFSKDFCTKCKVGFYLHRGRCFDECPDGFAPLEETMECVEGCEVGHWSEWGTCSRNNRTCGFKWGLETRTRQIVKKPVKDTILCPTIAESRRCKMTMRHCPGGKRTPKAKEKRNKKKKRKLIERAQEQHSVFLATDRANQ
notes: R-spondin 2 (RSPO2); also called RSPO2; source: purified recombinant
IC50 [1]: 0.5 nM

The remaining binders from weak to strong by IC50 [1], led by results:

IC50 [1]: 7 nM
B1: purified recombinant R-spondin 4 (ligand, UniProt Q2I0M5 20-234, looked up)
chain: LNRRKKQVGTGLGGNCTGCIICSEENGCSTCQQRLFLFIRREGIRQYGKCLHDCPPGYFGIRGQEVNRCKKCGATCESCFSQDFCIRCKRQFYLYKGKCLPTCPPGTLAHQNTRECQGECELGPWGGWSPCTHNGKTCGSAWGLESRVREAGRAGHEEAATCQVLSESRKCPIQRPCPGERSPGQKKGRKDRRPRKDRKLDRRLDVRPRQPGLQP
notes: R-spondin 4 (RSPO4); also called RSPO4; source: purified recombinant

IC50 [1]: 3.3 nM | Super TOPflash β-catenin reporter in HEK293T cells transfected with LGR6 or vector, serial dilutions of RSPO1 with Wnt3a CM: gain in potency of RSPO1 [2]: ~30 fold
B4: purified recombinant R-spondin 1 (ligand, UniProt Q2MKA7 21-263, looked up)
chain: SRGIKGKRQRRISAEGSQACAKGCELCSEVNGCLKCSPKLFILLERNDIRQVGVCLPSCPPGYFDARNPDMNKCIKCKIEHCEACFSHNFCTKCKEGLYLHKGRCYPACPEGSSAANGTMECSSPAQCEMSEWSPWGPCSKKQQLCGFRRGSEERTRRVLHAPVGDHAACSDTKETRRCTVRRVPCPEGQKRRKGGQGRRENANRNLARKESKEAGAGSRRRKGQQQQQQQGTVGPLTSAGPA
notes: R-spondin 1 (RSPO1); also called RSPO1; source: purified recombinant
